Measured values: paper PMC6764859 (Nature chemical biology, 2019)
One block for each binder: values may come before it.

How the values were obtained:
[1] = target: PTCH1_(ECD1), biotinylated (BLI) (human, UniProt Q13635, biotin on the BirA-recognition sequence); assay: BLI
[2] = target: PTCH1_(ECD2), biotinylated (BLI) (human, UniProt Q13635, biotin on the BirA-recognition sequence); assay: BLI
PTCH1_(ECD2), biotinylated (BLI), sequence (Q13635 772-1023): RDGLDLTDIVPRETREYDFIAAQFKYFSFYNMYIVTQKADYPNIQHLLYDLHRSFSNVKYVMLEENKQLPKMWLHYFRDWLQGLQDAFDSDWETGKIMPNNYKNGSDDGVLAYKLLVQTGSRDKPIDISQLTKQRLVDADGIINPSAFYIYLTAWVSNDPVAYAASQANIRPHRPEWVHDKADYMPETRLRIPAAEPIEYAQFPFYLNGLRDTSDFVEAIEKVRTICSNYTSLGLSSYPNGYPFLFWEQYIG

PTCH1_(ECD1), biotinylated (BLI), sequence (Q13635 139-428): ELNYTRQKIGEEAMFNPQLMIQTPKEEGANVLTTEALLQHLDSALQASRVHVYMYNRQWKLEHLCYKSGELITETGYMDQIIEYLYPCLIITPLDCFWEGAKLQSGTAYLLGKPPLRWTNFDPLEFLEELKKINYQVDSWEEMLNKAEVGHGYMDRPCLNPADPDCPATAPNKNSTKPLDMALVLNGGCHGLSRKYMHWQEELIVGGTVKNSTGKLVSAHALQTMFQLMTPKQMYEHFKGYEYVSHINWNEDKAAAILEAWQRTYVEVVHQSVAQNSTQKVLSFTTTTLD

- binding result [1]: binds
B1: NB64 (VHH)
VHH: QVQLQESGGGLVQPGGSLRLSCAASGSGNSINVMGWYRQAPGKPRELVAEITSSGTTNYADSVKGRFSISRDNAKNTVPLQMNSLKPEDTAIYYCSAVLVRFGGLRRSYWGQGTQVTVSS

- binding result [2]: binds
B2: NB75 (VHH)
VHH: QVQLQESGGGLVQAGDSLTLSCAASGRTFSSYTMGWFRQAPGKERDFIAGITSTGSSTYYADSVKGRFTISRDNAKNTVYLQMNSLKPEDTADYYCARKVAGGSYYQKDKYDYWGQGTQVTVSS
